Measurements: the supplement of paper PMC12042874
± gives the uncertainty stated by the source.

Assay: amyloid nucleation score (Sup35N fusion, yeast selection) (log enrichment); library NNK3; higher = more nucleation; inactive = no reads after selection
In short: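 Plasmid inserts were Illumina-sequenced at input and output from psi-negative yeast expressing Sup35N fused to peptides of 20 random codons. The yeast were induced with 100 μM copper sulfate for 24 hours and grown 7 days at 30°C on medium lacking adenine and uracil, and sequences with under 100 input reads were excluded. Nucleation score is the DiMSum log enrichment of output over input reads, centred on the mode score of non-aggregating sequences.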

Substance: YSVVDEKVALSSSWHSCLPL
- amyloid nucleation score: inactive

Substance: GKMLRWMKH
- amyloid nucleation score: inactive

Substance: LTMALYWTCSLTHILSYGID
- amyloid nucleation score: 0.062 ± 0.23

Substance: NFFRDSGRMCHPKGIGDRWT
- amyloid nucleation score: inactive

Substance: IFLCI
- amyloid nucleation score: inactive

Substance: FIPGAMVRYQGRILLRSDAG
- amyloid nucleation score: inactive

Substance: SIGPVCIRTQSRPQITLRMM
- amyloid nucleation score: inactive

Substance: HLPWFRVGATDMLSYTKSLG
- amyloid nucleation score: inactive

Substance: PLHSWKQCALRRVSSNTSSG
- amyloid nucleation score: 1.75 ± 0.093

Substance: PCLYLGIFARTKMHPTNDCM
- amyloid nucleation score: -0.88 ± 1.1

Substance: YGILLFGVSWWWAVSFFENF
- amyloid nucleation score: inactive

Substance: DTLLRKFWVIIVIGTALGSM
- amyloid nucleation score: inactive

Substance: NLKAM
- amyloid nucleation score: inactive

Substance: STVSYGVGHQNM
- amyloid nucleation score: inactive

Substance: GVKLVPAAIVGYASLQGL
- amyloid nucleation score: -0.375 ± 0.83

Substance: NSDVYVSFLSVCVFAVRCLL
- amyloid nucleation score: inactive

Substance: SIDNLSPRPTWSGIMFSHCL
- amyloid nucleation score: inactive

Substance: FTWLSMYYCLRANERK
- amyloid nucleation score: 1.33 ± 0.15

Substance: CKNQHFLSLIGFLYHIDPKR
- amyloid nucleation score: 0.709 ± 0.17

Substance: MGPSVMFCIDLSSWKHLIRL
- amyloid nucleation score: 0.87 ± 0.16

Substance: YFGFIVKISYTVLFGLGSKC
- amyloid nucleation score: inactive

Substance: MLFHDSVSSTWRIFELCSRC
- amyloid nucleation score: inactive

Substance: SNICKLFCCTESIKSQTRLW
- amyloid nucleation score: 2.61 ± 0.082

Substance: WQTTDRLFSVKKSALLVGFC
- amyloid nucleation score: inactive

Substance: SFLVSFTGVMLEFNCTCHLA
- amyloid nucleation score: inactive

Substance: GNFMNNGRLVASPLLREVCC
- amyloid nucleation score: inactive

Substance: LAKCVSVHSIYIHDSICPVG
- amyloid nucleation score: inactive

Substance: LHPYHYIWKMAHL
- amyloid nucleation score: inactive

Substance: EIRMRMIKRFVYD
- amyloid nucleation score: 1.16 ± 0.17

Substance: TDTRNINV
- amyloid nucleation score: inactive

Substance: ISNLRYRSWAYLVRSFCSVL
- amyloid nucleation score: inactive

Substance: DRLPGANICKRRFDMCERKV
- amyloid nucleation score: inactive

Substance: CLQSQFLNFE
- amyloid nucleation score: inactive

Substance: AVMNVHFDSSVMEPIDLNRW
- amyloid nucleation score: inactive

Substance: FAICSYANAEVSWKDGESAY
- amyloid nucleation score: inactive

Substance: HISRYEITVGCLIFRLLTRE
- amyloid nucleation score: 2.46 ± 0.054

Substance: HILFLYRDLVILVLCSSHPC
- amyloid nucleation score: inactive

Substance: SRRNTFAVGNFNSVLLN
- amyloid nucleation score: inactive

Substance: LMSYV
- amyloid nucleation score: inactive

Substance: AKNSKKSMLSVNGDRNDQSF
- amyloid nucleation score: inactive

Substance: FGWAWPFFTKVHHTSTV
- amyloid nucleation score: inactive

Substance: LVVNRDYFCRSVGPIVLLEP
- amyloid nucleation score: inactive

Substance: GRTVTVWMFASVRRGVTGYV
- amyloid nucleation score: inactive

Substance: KFGCSYTNYSITSPDNPSC
- amyloid nucleation score: inactive

Substance: SGLKVCYNYEDGRMVSLGYH
- amyloid nucleation score: inactive

Substance: LRATHVSVKGSGRYSVSTFS
- amyloid nucleation score: inactive

Substance: MQVILNNVFSTFPLPAGLLR
- amyloid nucleation score: inactive

Substance: RSNMHC
- amyloid nucleation score: inactive

Substance: VNLNKGLRWNYFGDDMKPHR
- amyloid nucleation score: 1.19 ± 0.073

Substance: SWVGTG
- amyloid nucleation score: -0.331 ± 0.84

Substance: ETRFWNLIHADYIRMIGAGF
- amyloid nucleation score: inactive

Substance: LIFFWSIEA
- amyloid nucleation score: inactive

Substance: YFRGPF
- amyloid nucleation score: inactive

Substance: SIWWYNLVVI
- amyloid nucleation score: inactive

Substance: IVSVQVVLLYQM
- amyloid nucleation score: 1.12 ± 0.14

Substance: PPCWLYDFVTNVNNWWYEHC
- amyloid nucleation score: inactive

Substance: SSFPYFTTYVHHVG
- amyloid nucleation score: inactive

Substance: SRNVLYLVIKIYFEDFNPLS
- amyloid nucleation score: inactive

Substance: SFYSNGKLLVILFATMMD
- amyloid nucleation score: inactive

Substance: CDFIDVS
- amyloid nucleation score: inactive

Substance: MLWEVDLNVRTSMADT
- amyloid nucleation score: inactive

Substance: KTYFRHTVRNTSSV
- amyloid nucleation score: 1.52 ± 0.11

Substance: WYALYAKYASTPGFCACLRG
- amyloid nucleation score: inactive

Substance: IRSAVVV
- amyloid nucleation score: -0.53 ± 1.8

Substance: WAFHFGCCNDGMVR
- amyloid nucleation score: inactive

Substance: KGYSRYQSVHRSNRELYNQA
- amyloid nucleation score: -0.563 ± 0.64

Substance: LYELGQKFLVGHWQRGLKP
- amyloid nucleation score: inactive

Substance: YCSIGLLCTSCIASVGIWVI
- amyloid nucleation score: inactive

Substance: TMNLCS
- amyloid nucleation score: inactive

Substance: KYWICVFFVMIRDPIAYWDD
- amyloid nucleation score: inactive

Substance: SSCPYIFYQLST
- amyloid nucleation score: inactive

Substance: GFWWVTRPSTPARLSSMSPQ
- amyloid nucleation score: inactive

Substance: WFMRFTLSLVTGLVNGSAWS
- amyloid nucleation score: inactive

Substance: RSRYSSLPLPVV
- amyloid nucleation score: inactive

Substance: FFCSGS
- amyloid nucleation score: inactive

Substance: PGSASYSLVRGQDYYLTIYC
- amyloid nucleation score: inactive

Substance: LTLNSKVTDM
- amyloid nucleation score: inactive

Substance: VNDWWVSGW
- amyloid nucleation score: inactive

Substance: GASREFQTCSVGVYYVAIEK
- amyloid nucleation score: inactive

Substance: IMSRMYDDSFADLVCKHAVD
- amyloid nucleation score: inactive

Substance: LKFEVVMVLFSTIC
- amyloid nucleation score: inactive

Substance: EVCNVVTCGNLFKVTIYNSQ
- amyloid nucleation score: 2.43 ± 0.068

Substance: INCLRSLTNCINSCRPIIVL
- amyloid nucleation score: inactive

Substance: LRNTFKCVTIRALGSKGGRA
- amyloid nucleation score: inactive

Substance: KRFHMYVHGSDMEVLLAGKC
- amyloid nucleation score: inactive

Substance: YTLVDRSICT
- amyloid nucleation score: inactive

Substance: TIEQCGLS
- amyloid nucleation score: inactive

Substance: VFRLKSVLSGLLQAHRLAGI
- amyloid nucleation score: inactive

Substance: VLMGRCLPRWLLYEELLVYV
- amyloid nucleation score: inactive

Substance: SSSTKGFVNVDKSLASW
- amyloid nucleation score: inactive

Substance: LYVFCLAILPLDVLRFSLML
- amyloid nucleation score: inactive

Substance: DDGSLDLMTKTA
- amyloid nucleation score: inactive

Substance: QKIIVSR
- amyloid nucleation score: inactive

Substance: VIFFSRSAYYKVISGRVI
- amyloid nucleation score: inactive

Substance: HPVLRIRLLREKMMRFS
- amyloid nucleation score: inactive

Substance: SSACISCYVSMLWYDVLFKV
- amyloid nucleation score: 0.345 ± 0.23

Substance: IDVRATNPVRAVETD
- amyloid nucleation score: inactive

Substance: SSNDVVTSYRILCKVSTKAT
- amyloid nucleation score: -0.622 ± 0.66

Substance: SARYWESDRLALIRCHLELR
- amyloid nucleation score: inactive

Substance: TGYPGPIKFRRIFYANYYSF
- amyloid nucleation score: inactive

Substance: LNYVIVDSLDKVVQITREYS
- amyloid nucleation score: inactive

Substance: SFVHGKLILKFRSVNASRQS
- amyloid nucleation score: inactive

Substance: MVLYYSLILFAHCLKLARHN
- amyloid nucleation score: inactive

Substance: ARQTVPSCTLYYWFLSTVKY
- amyloid nucleation score: inactive

Substance: GNFCDCEDFHKGSAGLRWSG
- amyloid nucleation score: inactive

Substance: SVDVMTGLPTWSYLCDDETR
- amyloid nucleation score: 2.2 ± 0.06

Substance: ESFPEFVEVGICR
- amyloid nucleation score: inactive

Substance: HILSCSQVFG
- amyloid nucleation score: 0.025 ± 0.6

Substance: CRCHRLVNIPSMFWCLKFVG
- amyloid nucleation score: inactive

Substance: LWYYCTQEVIARRDEKA
- amyloid nucleation score: inactive

Substance: ANFQWE
- amyloid nucleation score: inactive

Substance: LISLPVG
- amyloid nucleation score: -0.254 ± 0.7

Substance: ARKMRKAMYLRGTSALVPCL
- amyloid nucleation score: inactive

Substance: FADVGTEFSCQEVNMKTHPS
- amyloid nucleation score: inactive

Substance: HMEYLKQLFFRTVLFTDQSV
- amyloid nucleation score: inactive

Substance: IWWNIYCFTVTSSVD
- amyloid nucleation score: 2.21 ± 0.095

Substance: QVFHFGCSEDARCVCRVHM
- amyloid nucleation score: inactive

Substance: DKHMIGLYNPRASIELL
- amyloid nucleation score: inactive

Substance: GEIANSQVRKWLIEMYSPVV
- amyloid nucleation score: inactive

Substance: CMSPYWML
- amyloid nucleation score: inactive

Substance: GNSLWKSPCYL
- amyloid nucleation score: inactive

Substance: YYLRKVKRKENTSMLHAAFS
- amyloid nucleation score: inactive

Substance: RERPRD
- amyloid nucleation score: inactive

Substance: IFSRGEGLLRRMVSL
- amyloid nucleation score: inactive

Substance: IRRHYAYCYNISTITVIAEI
- amyloid nucleation score: inactive

Substance: PVLEYKVL
- amyloid nucleation score: inactive

Substance: EGTRLTSYM
- amyloid nucleation score: inactive

Substance: AYWSFFPWGLYARLPGTPVV
- amyloid nucleation score: inactive

Substance: YYLCVVPLRLLGRCASWSFG
- amyloid nucleation score: inactive

Substance: YGTMFLENTYNPFPVGSHVF
- amyloid nucleation score: inactive

Substance: FDGFGMDNIWKTFRNPHLMG
- amyloid nucleation score: inactive

Substance: LKYNEKDPFECH
- amyloid nucleation score: -0.318 ± 0.42

Substance: FPDLVVYSS
- amyloid nucleation score: inactive

Substance: NMFVILRFVMHKIKMFNRF
- amyloid nucleation score: 1.51 ± 0.079

Substance: GKFNTCA
- amyloid nucleation score: inactive

Substance: RVFHP
- amyloid nucleation score: inactive

Substance: NMFRARGCSDFFLACMNDSA
- amyloid nucleation score: inactive

Substance: TRTMAVDTVGCSENRDAAGD
- amyloid nucleation score: inactive

Substance: YSDLKSFLLNVIGRNKSIGM
- amyloid nucleation score: inactive

Substance: TRSWCGDMYSHC
- amyloid nucleation score: inactive

Substance: NESISPFVTKRHPEFMRFNC
- amyloid nucleation score: inactive

Substance: NGVCTVNVTFCYMV
- amyloid nucleation score: 2.23 ± 0.058

Substance: NRVMSVLF
- amyloid nucleation score: inactive

Substance: RLVRSMAFYNHVIYL
- amyloid nucleation score: 0.012 ± 0.28

Substance: FKFVQDAHQNLGVIRSYRRS
- amyloid nucleation score: inactive

Substance: KVLVFGFQCFIL
- amyloid nucleation score: 1.56 ± 0.08

Substance: YFSMIVVGCVNFKELPDNRV
- amyloid nucleation score: 1.78 ± 0.086

Substance: THHWKFGSNPSFR
- amyloid nucleation score: inactive

Substance: VFISRKCWRNHNF
- amyloid nucleation score: inactive

Substance: VELTC
- amyloid nucleation score: inactive

Substance: ISRFCYSSINRRGFLGNFVF
- amyloid nucleation score: inactive

Substance: GSIDFSSSCECIGDWHHRGY
- amyloid nucleation score: inactive

Substance: NYGNPRRMVCSEYGWESLCK
- amyloid nucleation score: inactive

Substance: DNRYVY
- amyloid nucleation score: inactive

Substance: YWIAIFTLHFLLDPRFRNSM
- amyloid nucleation score: inactive

Substance: FIVVVLLCFG
- amyloid nucleation score: inactive

Substance: PVNNIYGRLPGLLKLEKVSS
- amyloid nucleation score: inactive

Substance: RGICGNQLCRVMPLLNPHGC
- amyloid nucleation score: inactive

Substance: DMWYRYYMSLGSCKRGSVWK
- amyloid nucleation score: inactive

Substance: ENTTMVGHMGYSLMFSYK
- amyloid nucleation score: 1.25 ± 0.12
